Assay results published in IntAct's records for PubMed 18001824.

Target: rnf8_human RNF8 (UniProt O76064)
Sequence of UniProt O76064 (O76064 whole entry): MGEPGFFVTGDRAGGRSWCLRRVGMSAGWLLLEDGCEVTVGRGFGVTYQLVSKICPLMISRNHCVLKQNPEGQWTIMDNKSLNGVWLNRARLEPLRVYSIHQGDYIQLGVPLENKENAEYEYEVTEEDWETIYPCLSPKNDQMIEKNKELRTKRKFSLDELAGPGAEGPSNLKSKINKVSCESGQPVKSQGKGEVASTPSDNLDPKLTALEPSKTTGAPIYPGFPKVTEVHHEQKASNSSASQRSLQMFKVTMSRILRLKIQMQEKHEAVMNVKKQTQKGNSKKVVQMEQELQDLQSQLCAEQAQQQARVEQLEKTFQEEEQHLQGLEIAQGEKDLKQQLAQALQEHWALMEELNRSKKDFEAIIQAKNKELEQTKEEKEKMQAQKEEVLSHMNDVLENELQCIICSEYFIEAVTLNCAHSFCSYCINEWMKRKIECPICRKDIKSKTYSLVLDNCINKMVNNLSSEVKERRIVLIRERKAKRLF

Mediator of DNA damage checkpoint protein 1 (Homo sapiens), Q14676 T699A;T719A;T752A
effect of a mutation on the interaction: decreasing interaction
